Residue numbers refer to the chain shown, from its start.

T1: human IL-12Rβ2-huFc-his (R&D system), biotinylated (human, UniProt Q99665 24-622, limits assumed, biotinylated)
T1 construct: bought; captured on Neutravidin in the ELISA; also called Bio-huIL-12Rβ2-huFc-His
T1 sequence (looked up): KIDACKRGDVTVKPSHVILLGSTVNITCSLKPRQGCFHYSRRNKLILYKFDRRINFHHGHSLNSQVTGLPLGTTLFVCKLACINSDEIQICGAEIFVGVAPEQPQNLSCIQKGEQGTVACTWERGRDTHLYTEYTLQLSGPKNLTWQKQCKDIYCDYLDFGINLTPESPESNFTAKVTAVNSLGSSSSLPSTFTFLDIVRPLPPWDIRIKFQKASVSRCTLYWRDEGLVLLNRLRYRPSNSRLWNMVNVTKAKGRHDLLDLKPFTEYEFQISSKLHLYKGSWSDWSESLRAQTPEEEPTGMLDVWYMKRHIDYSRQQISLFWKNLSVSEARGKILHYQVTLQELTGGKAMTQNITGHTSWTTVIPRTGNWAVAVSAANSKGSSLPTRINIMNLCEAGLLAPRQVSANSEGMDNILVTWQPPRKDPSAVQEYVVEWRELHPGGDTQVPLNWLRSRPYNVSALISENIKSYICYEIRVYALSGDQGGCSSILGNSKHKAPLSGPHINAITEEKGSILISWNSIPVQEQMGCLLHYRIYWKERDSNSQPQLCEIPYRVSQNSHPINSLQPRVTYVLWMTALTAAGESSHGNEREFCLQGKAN

T2: cyno IL-12RB2 with C-terminal HA tag, transiently expressed on HEK-293T cells (cyno, UniProt A0A2K5VNI7 24-860)
T2 construct: whole, on cells; also called cyno IL-12Rβ2
T2 sequence: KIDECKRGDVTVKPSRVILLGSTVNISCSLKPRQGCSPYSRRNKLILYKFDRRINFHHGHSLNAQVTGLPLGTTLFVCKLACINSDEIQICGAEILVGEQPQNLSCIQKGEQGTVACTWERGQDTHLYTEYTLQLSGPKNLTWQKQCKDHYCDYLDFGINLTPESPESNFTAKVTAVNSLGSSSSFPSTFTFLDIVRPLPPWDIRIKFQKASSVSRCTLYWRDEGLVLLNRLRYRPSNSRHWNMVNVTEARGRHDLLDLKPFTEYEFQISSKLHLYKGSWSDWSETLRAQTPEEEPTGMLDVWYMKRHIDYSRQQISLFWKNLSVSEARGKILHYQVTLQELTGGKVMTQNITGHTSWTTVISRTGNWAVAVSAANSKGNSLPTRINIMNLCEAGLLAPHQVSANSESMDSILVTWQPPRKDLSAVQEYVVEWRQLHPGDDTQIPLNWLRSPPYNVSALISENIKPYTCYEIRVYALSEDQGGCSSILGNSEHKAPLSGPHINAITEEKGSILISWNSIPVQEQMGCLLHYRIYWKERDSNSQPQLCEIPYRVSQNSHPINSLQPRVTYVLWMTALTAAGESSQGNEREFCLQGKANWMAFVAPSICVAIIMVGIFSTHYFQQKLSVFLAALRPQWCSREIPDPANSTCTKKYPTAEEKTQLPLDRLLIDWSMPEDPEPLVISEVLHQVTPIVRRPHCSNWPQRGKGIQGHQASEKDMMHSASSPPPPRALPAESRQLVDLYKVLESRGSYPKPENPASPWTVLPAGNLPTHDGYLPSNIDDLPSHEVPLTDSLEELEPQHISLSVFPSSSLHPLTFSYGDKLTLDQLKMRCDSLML

T3: human IL-12RB2 with C-terminal HA tag, transiently expressed on HEK-293T cells (human, UniProt Q99665 24-862)
T3 construct: whole, on cells; also called human IL-12Rβ2
T3 sequence (looked up): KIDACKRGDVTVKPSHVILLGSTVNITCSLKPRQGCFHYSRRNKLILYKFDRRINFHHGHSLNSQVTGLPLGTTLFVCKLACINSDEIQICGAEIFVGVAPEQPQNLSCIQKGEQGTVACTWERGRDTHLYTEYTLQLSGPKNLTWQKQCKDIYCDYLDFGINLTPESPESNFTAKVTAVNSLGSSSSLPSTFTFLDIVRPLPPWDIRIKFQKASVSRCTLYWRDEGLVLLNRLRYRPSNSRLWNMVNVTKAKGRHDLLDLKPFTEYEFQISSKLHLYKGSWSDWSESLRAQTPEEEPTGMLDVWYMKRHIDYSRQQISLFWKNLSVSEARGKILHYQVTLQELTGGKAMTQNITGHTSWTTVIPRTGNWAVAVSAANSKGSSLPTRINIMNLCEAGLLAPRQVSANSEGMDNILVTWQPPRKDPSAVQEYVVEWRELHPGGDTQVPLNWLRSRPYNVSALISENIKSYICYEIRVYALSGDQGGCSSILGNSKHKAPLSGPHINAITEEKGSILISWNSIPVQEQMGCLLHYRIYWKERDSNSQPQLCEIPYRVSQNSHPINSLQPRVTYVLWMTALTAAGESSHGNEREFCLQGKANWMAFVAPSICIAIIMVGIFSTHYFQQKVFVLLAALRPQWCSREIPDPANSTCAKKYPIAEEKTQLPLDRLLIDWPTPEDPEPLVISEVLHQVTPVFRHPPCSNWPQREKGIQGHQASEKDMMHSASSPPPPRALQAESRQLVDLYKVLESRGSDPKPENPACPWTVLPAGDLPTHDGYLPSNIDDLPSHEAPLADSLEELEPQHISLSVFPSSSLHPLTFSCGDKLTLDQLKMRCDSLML

B1: VHH307B2 (VHH)
VHH: QVQLVESGGGLVQAGGSLRLSCAASGRTFSRYIMGWFRQATGKEREFVAAISWSGLSTHYADSVQGRFTISRDNAENTVYLQMNSLKPEDTAVYYCAADRHWETRLLPREYDYWGQGTQVTVSS
B2: VHH194B2 (VHH)
VHH: QLQLVESGGGLVQAGGSLRLSCAASGLTFSGYTVGWFRQAPGKEREFVAAINWSSAYTYSEFVKGRFTISRDNAKNTVYLQMSSLKPEDTAVYYCAARRSRTSWYASTAEAYDYWGQGTQVTVSS
B3: VHH294B2 (VHH)
VHH: B2 VHH with R98Q
B4: VHH67B2 (VHH)
VHH: QVQLVESGGGLVQPGGSLRLSCAASGFTFSNYAMSWIRQGPERGFEWVSRINSGGGTTSYADSVKGRFTISRDNAKNTLYLQMNSLKPEDTAVYYCAKHSHPDYSSNYYRPGQGTQVTVSS
B5: VHH64B2 (VHH)
VHH: QVQLVESGGGLVQPGGSLRLSCAASGFTFSSKAMHWFRQAPGKGLEWVSSINSGGAITYYKDSVKGRFTVSRDNAKNILYLEMNSLKPEDTALYYCATDTDGRTRGQGTQVTVSS
B6: VHH19B2 (VHH)
VHH: QVQLVESGGGLVQPGGSLRLSCAASGFTFSNYAMSWVRQAPGKGLEWVSAINSDGTSTSYADSVKGQFTISRDNAKNTLYLQMNSLKPEDTAVYYCTKWEGDTDSDYKFKDYWGQGTQVTVSS
B7: VHH322B2 (VHH)
VHH: QLQLVESGGGLVQAGGSLRLSCAASGRTFGIHGMGWFRQAPGKEREFAAAIRWSDGTTIHADSVKGRLTISRDNAKNTVYLQMNSLKPEDTAVYYCAATSNPQFGRNWYTVAAGVEYGYWGQGTQVTVSS
B8: VHH13B2 (VHH)
VHH: QVQLVESGGGLVRPGGSLRLSCAASGFTFSSNGMHWFRQAPGKGLEWVSSIGSGGTSIYYADSVKGRFTISRDNAKNTLYLQMNSLKSDDTAVYYCSKEVTGATRGQGTQVTVSS
B9: VHH222B2 (VHH)
VHH: QVQLVESGGGLVQAGGSLRLSCAASGRIFSAYRMGWFRQAPGKEREFVAGITWRGQTTYYAASVKGRFTISKDNAKKTVYLQMNSLKPEETAVYYCAVETNGLGRWDRPSEYDYWGQGTQVTVSS
B10: VHH68B2 (VHH)
VHH: EVQLVESGGGLVQAGGSLKLSCAASGGTFSSYAMGWFRQAPGKEREFVAAIMRSGDTTVYVDSVKGRFTVSRDNAKNTVYLQMNSLKPEDAAVYYCAAGRPVTRTYYSTYTYPHDYDYWGQGTQVTVSS
B11: VHH278B2 (VHH)
VHH: B10 VHH with E1Q, A50V, V59A, Y95F, S108H
B12: VHH289B2 (VHH)
VHH: B10 VHH with E1Q, D56G, D62N, T103S, Y106S, S108Y, T126S
B13: VHH361B2 (VHH)
VHH: QVQLVESGGGLVQTGASLRLSCAASGRTFGRYEMAWFRQAPGKEREFVAHISSSGLTTTYADSVKGRFTISRGNALNTVYLQMNSLKPEDTAVYYCAANVDGSAWSTLGAGMDYWGKGTLVTISS
B14: 85801_01D14 (antibody, V domains shown)
VH: EVQLVESGGGLVKPGGSLRLSCAASGFTFSNAWMNWVRQAPGKGLEWVGRIKSKTDGGTTDYAAPVKGRFTVSRDDPKNTLYLQMNSLKTEDTAVYYCTTDPGWEFDYWGQGILVTVSS
VL: DIQMTQSPSSLSASVGDRVTITCQASQDISNFLNWYQQKPGKAPNLLIYDASDLETGVPSRFSGSGSGTDFTFTISSLQPEDIATYYCQQYDNLPLTFGGGTKVEIK
notes: also called 85801_01D14A
B15: 85801_01L02 (antibody, V domains shown)
VH: QVQLVHSGPEVKKPGASVKVSCKASGYTFTDYYMHWVRQAPGQGLEWMGWINPDSGGTNYAQKFQGRVTMTRDTSISTAYMELSRLRSDDTAVYHCAREGATSNFDYWGQGTLVTVSS
VL: DIQMTQSPSSLSASVGDRVTITCRASQGISNYLAWFQQKPGKAPTSLIYAASNLQGGVPSKFSGSGSGTDFTLTISSLQPEDFATYYCQQYRYYPFTFGPGTKVDIK
notes: also called 85801_01L02A

The first assay has as its target T1, human IL-12Rβ2-huFc-his (R&D system), …. The experiment in a line: ELISA, periplasmic extract.
Molecule B1 came in with an OD450 nm of 0.626.

With B2, the OD450 nm was determined as 0.602.

The molecule B3 had an OD450 nm of 2.2.

For the molecule B4, the OD450 nm is 0.581.

As for B5, the OD450 nm came to 2.22.

B6 registered an OD450 nm of 1.3.

The molecule B7 had an OD450 nm of 1.67.

For B8, the OD450 nm came to 1.71.

As for B9, the OD450 nm is 0.961.

B10 gave an OD450 nm of 2.13.

Molecule B11 registered an OD450 nm of 0.794.

Molecule B12 had an OD450 nm of 3.19.

B13: the OD450 nm is 1.35.

The next assay addresses T4, IL-12 receptor endogenously expressed on THP-1 cells (UniProt P42701 24-662; Q99665 24-862).
T4 construct: whole, on cells
The assay is described as follows: FACS, hybridoma supernatant, THP-1. In general terms: In flow cytometry, cells or beads pass a laser one at a time.
Regarding B14, the Fold over buffer came to 24 fold.

On to B15, for which the Fold over buffer was found to be 41 fold.

The target of another assay is T5, cyno IL-12RB1 overexpressed on 293T cells (Example 2) (cyno, UniProt A0A2K5VWV1 24-662).
T5 construct: whole, on cells
The experiment in a line: FACS, hybridoma supernatant, 293T.
Regarding B14, the “Fold over parental 293T” value was determined as 52 fold.

Turning to B15, the “Fold over parental 293T” value was 32 fold.

The target in a further assay is T6, human IL-12RB1 overexpressed on 293T cells (Example 2) (human, UniProt P42701 24-662).
T6 construct: whole, on cells
The experiment in a line: FACS, hybridoma supernatant, 293T.
For B14, the “Fold over parental 293T” value was 116 fold.

Take B15: the “Fold over parental 293T” value is 117 fold.

The next assay has as its target T2, cyno IL-12RB2 with C-terminal HA tag, …. The experiment in a line: FACS, periplasmic extract, HEK-293T.
The molecule B1 registered an FOB of 3.16 fold.

As to B2, the FOB is 3.06 fold.

B3 registered an FOB of 3.19 fold.

The molecule B4 registered an FOB of 2.32 fold.

Consider B5, for which the FOB was 2.69 fold.

In turn, B6 displayed an FOB of 2.75 fold.

B7 yielded an FOB of 3.21 fold.

With B8, the FOB was found to be 2.65 fold.

B9: the FOB came to 1.28 fold.

Consider B10, for which the FOB was found to be 3.47 fold.

Regarding B11, the FOB stood at 3.97 fold.

In the case of B12, the FOB worked out at 2.88 fold.

B13 came in with an FOB of 4.01 fold.

The next assay addresses T3, human IL-12RB2 with C-terminal HA tag, …. The experiment in a line: FACS, periplasmic extract, HEK-293T.
In the case of B1, the FOB amounted to 1.95 fold.

Turning to B2, the FOB was determined as 1.68 fold.

B3 had an FOB of 1.98 fold.

The molecule B4 came in with an FOB of 1.73 fold.

As to B5, the FOB was found to be 1.68 fold.

Consider B6, for which the FOB came to 1.63 fold.

Regarding B7, the FOB amounted to 1.99 fold.

Regarding B8, the FOB is 1.77 fold.

As for B9, the FOB is 3.17 fold.

In turn, B10 displayed an FOB of 2.25 fold.

With B11, the FOB turned out to be 2.46 fold.

Turning to B12, the FOB is 1.91 fold.

The molecule B13 yielded an FOB of 2.16 fold.

The record behind these values is US20250019450A1 (DIAGONAL THERAPEUTICS, published 2025).
